Test results from patent US20220064324A1 (US Dept. of Health and Human Services, published 2022).
Substitutions are numbered along the chain they refer to.

T1: human mesothelin Fragment 1 (residues 296-390) (human, UniProt Q13421 296-390)
T1 construct: also called Region I
T1 chain: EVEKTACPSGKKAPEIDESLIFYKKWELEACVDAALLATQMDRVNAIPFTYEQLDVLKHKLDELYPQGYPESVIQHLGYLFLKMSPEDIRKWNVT

T2: human mesothelin Region IAB (296-359) (human, UniProt Q13421 296-359)
T2 construct: also called IAB domain
T2 chain: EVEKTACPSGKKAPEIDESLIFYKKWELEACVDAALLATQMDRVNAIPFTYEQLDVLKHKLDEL

T3: human mesothelin Region IAB Y318A mutant (human, UniProt Q13421 296-359)
T3 chain: T2 chain with Y23A

B1: A101 camel single-domain (VHH) monoclonal antibody (VHH)
VHH: QVQLVESGGGTVQAGGSLKLACAASGLPRTYNVMGWFRQAPGKEREGVAIIYTTTGATYYRDSVKGRATISQDNAKKSVSLQMNSLRPEDTAIYYCVARQPNSGPWEYWGQGTQVTVSS
notes: Isolated from a camel VHH phage display library; also called A101 antibody; A101 anti-mesothelin VHH antibody
B2: G8 camel single-domain (VHH) monoclonal antibody (VHH)
VHH: QVKLEESGGGSVQAGGSLRLSCTTSGYTNSYKWMGWFRQAPGQEREGVAVIYTGNDRTYYSDSVKGRFTISRDNAKNMIYLDMTRLRPEDSAVYECAIGHDGAWRYWGQGTQVTVSS
notes: Isolated from a camel VHH phage display library; also called G8 antibody; G8 anti-mesothelin VHH antibody

Legend:
[1] = biological target: T1, human mesothelin Fragment 1 (residues …); assay: ELISA on mesothelin Region I, VHH concentration not given
[2] = biological target: T2, human mesothelin Region IAB (296-359); assay: ELISA on mesothelin Region IAB, VHH concentration not given
[3] = biological target: T3, human mesothelin Region IAB Y318A mutant; assay: ELISA on Region IAB mutant Y318A, VHH concentration not given

| Binder | binding result [1] | binding result [2] | binding result [3] |
| --- | --- | --- | --- |
| B1 | binds | binds | no binding |
| B2 | binds | binds | no binding |
